Three molecules from patent US20200299373A1 can be followed below.

The target of assay [1] is recombinant human FAM19A5 protein (His-tagged) (human) (UniProt Q7Z5A7). Kind of assay: two-site sandwich ELISA; capture antibody 3-2; S/N = O.D. at 10 ng/mL antigen / O.D. at 0 ng/mL; O.D. in column 0 printed 0.13.
Assay [2] shares this target. Kind of assay: ELISA on N'-Term His FAM19A5, fit of the titration; R2 printed 0.9692. (In general: ELISA stands for enzyme-linked immunosorbent assay.)
Assay [3] has the same target. Kind of assay: two-site sandwich ELISA; capture antibody 3-2; biotinylated detection antibody P2-F11; antigen in ng/mL.
Assay [4] shares this target. Kind of assay: two-site sandwich ELISA; capture antibody P2-A03; S/N = O.D. at 10 ng/mL antigen / O.D. at 0 ng/mL; O.D. in column 0 printed 0.09.
For assay [5] the target is unchanged. As to the kind of experiment: two-site sandwich ELISA; capture antibody 13B4; biotinylated detection antibody P2-F11; antigen in ng/mL.
Assay [6] has the same target. Kind of assay: two-site sandwich ELISA; capture antibody 1-65; S/N = O.D. at 10 ng/mL antigen / O.D. at 0 ng/mL; O.D. in column 0 printed 0.12.
The target is the same in assay [7]. As to the kind of experiment: two-site sandwich ELISA; capture antibody 2-13; S/N = O.D. at 10 ng/mL antigen / O.D. at 0 ng/mL; O.D. in column 0 printed 0.29.
For assay [8] the target is unchanged. Kind of assay: two-site sandwich ELISA; capture antibody 1-65; biotinylated detection antibody P2-F11; antigen in ng/mL.
Assay [9] shares this target. As to the kind of experiment: ELISA on N'-Term His FAM19A5, fit of the titration (OD 492 nm); R2 printed 0.9692.
Assay [10] has the same target. Kind of assay: two-site sandwich ELISA; capture antibody 13B4; S/N = O.D. at 10 ng/mL antigen / O.D. at 0 ng/mL; O.D. in column 0 printed 0.18.
Assay [11] shares this target. Kind of assay: two-site sandwich ELISA; capture antibody 2-13; biotinylated detection antibody P2-F11; antigen in ng/mL.
Assay [12] has the same target. As to the kind of experiment: two-site sandwich ELISA; capture antibody P2-A03; biotinylated detection antibody P2-F11; antigen in ng/mL.
Assay [13] has as its target T1, F2-03-BSA (human).
T1 chain: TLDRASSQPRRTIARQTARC
Kind of assay: ELISA on mutant F2 peptide-BSA #3. The following applies: remark: other sources report otherwise.

Assay [14] addresses recombinant human FAM19A5 protein (His-tagged) (human) (UniProt Q7Z5A7). As to the kind of experiment: ELISA on N'-Term His FAM19A5, fit of the titration (OD 492 nm); R2 printed 0.8703.
The target is the same in assay [15]. As to the kind of experiment: ELISA on coated FAM19A5, as in Example 6.
Assay [16] shares this target. Kind of assay: two-site sandwich ELISA; capture antibody 13B4; biotinylated detection antibody P2-A03; antigen in ng/mL.
For assay [17] the target is unchanged. As to the kind of experiment: two-site sandwich ELISA; capture antibody P2-F11; S/N = O.D. at 10 ng/mL antigen / O.D. at 0 ng/mL; O.D. in column 0 printed 0.14.
The target is the same in assay [18]. Kind of assay: two-site sandwich ELISA; capture antibody P2-F11; biotinylated detection antibody P2-A03; antigen in ng/mL.
The target is the same in assay [19]. Kind of assay: two-site sandwich ELISA; capture antibody 2-13; S/N = O.D. at 10 ng/mL antigen / O.D. at 0 ng/mL; O.D. in column 0 printed 0.22.
Assay [20] shares this target. As to the kind of experiment: two-site sandwich ELISA; capture antibody 2-13; biotinylated detection antibody P2-A03; antigen in ng/mL.
Assay [21] shares this target. As to the kind of experiment: two-site sandwich ELISA; capture antibody 13B4; S/N = O.D. at 10 ng/mL antigen / O.D. at 0 ng/mL; O.D. in column 0 printed 0.22.
The target is the same in assay [22]. Kind of assay: ELISA on N'-Term His FAM19A5, fit of the titration (OD 492 nm); R2 printed 0.9746.
The target is the same in assay [23]. Kind of assay: two-site sandwich ELISA; capture antibody 1-65; biotinylated detection antibody P2-A03; antigen in ng/mL.
The target is the same in assay [24]. As to the kind of experiment: two-site sandwich ELISA; capture antibody 1-65; S/N = O.D. at 10 ng/mL antigen / O.D. at 0 ng/mL; O.D. in column 0 printed 0.15.
Assay [25] shares this target. As to the kind of experiment: two-site sandwich ELISA; capture antibody 3-2; S/N = O.D. at 10 ng/mL antigen / O.D. at 0 ng/mL; O.D. in column 0 printed 0.16.
Assay [26] has the same target. As to the kind of experiment: ELISA on N'-Term His FAM19A5, fit of the titration; R2 printed 0.9746.
Assay [27] has the same target. Kind of assay: two-site sandwich ELISA; capture antibody 3-2; biotinylated detection antibody P2-A03; antigen in ng/mL.

B1: anti-FAM19A5 antibody P2-F11 (antibody, V domains shown)
VH: QEQLVESGGRLVTPGTTLTLTCTVSGFSLSSYGVSWVRQAPGKGLEWIGYIANNYNPHYASWAKGRFTISKTSSTTVDLKMTSLTTEDTATYFCARDNYGMDPWGPGTLVTVSS
VL: ELDLTQTPSSVSAAVGGTVTINCQASQSVYNNKNLAWYQQKPGQPPKLLIYAASTLASGVSSRFKGSGSGTQFTLTISDVQCDDAATYYCQGEFSCSSADCNAFGGGTELEILR
modifications: Biotinylated when used as detection antibody in FIG. 6B.
As usually defined, the Kd is the constant that tells how readily two partners part at equilibrium. B1: the S/N was found to be 13.9 in assay [1]; 1 in assay [4]; 1.7 in assay [6]; 7 in [7]; 1 in [10]. Besides, the Kd in assay [2] came out at 410 pM. Besides, the O.D., antigen 100 worked out at 2.02 in [3]; 0.2 in [5]; 1.25 in [8]; 1.83 in assay [11]; 0.09 in assay [12]. Besides, the O.D., antigen column 10 in assay [3] was 1.81; in [5], 0.18; in assay [8], 0.2; in assay [11], 2.04; in [12], 0.09. Also, the Bmax in assay [9] is 3.26.

B2: anti-FAM19A5 antibody 1-28 (antibody, V domains shown)
VH: AVTLDESGGGLQTPGGALSLVCKASGFDFSDYGMGWVRQAPGKGLEWVAAIRSDGSNPSYGSAVKGRATISKDNGRSTVRLQLNNLRAEDTATYYCAKDGNGYCALDAYRSGGYSCGVYPGSIDAWGHGTEVIVSS
VL: ALTQPSSVSANLEGTVEITCSGSGYGYGWYQQKSPGSAPVTVIYQNDKRPSDIPSRFSGSKSGSTGTLTITGVQVEDEAVYYCGSEDSSTLAGIFGAGTTLTVL
modifications: here or on the partner: conjugated to BSA
B2 gave an O.D (492nm) in assay [13] of 0.055. Also, the Bmax in assay [14] is 2.94. Also, the Kd in [15] was 170 pM.

B3: anti-FAM19A5 antibody P2-A03 (antibody, V domains shown)
VH: QSVEESGGRLVTPGTPLTLTCTVSGFSLNNYDMSWVRQAPGKGLEYIGFMDTDGSAYYATWAKGRFTISRTSTTVDLKMTSPTTEDTATYFCARRGSSYYGGIDIWGPGTPVTVSL
VL: ELDLTQTPASVSEPVGGTVTIKCQASQSIGGNLAWYQQKPGQPPKLLIYRASTLASGVPSRFKGSGSGTDFTLTISDLECADAATYYCQSPAYDPAAYVGNAFGGGTELEILR
modifications: Biotinylated when used as detection antibody in FIG. 6B.
Take B3: the O.D., antigen 100 was found to be 0.27 in [16]; 0.15 in [18]; 1.88 in assay [20]; 0.16 in assay [23]; 1.91 in assay [27]. Moreover, the O.D., antigen column 10 in [16] stood at 0.22; in assay [18], 0.15; in assay [20], 1.72; in assay [23] it was 0.15; in assay [27] it was 1.66. Besides, the S/N was 1.1 in assay [17]; 7.8 in assay [19]; 1 in assay [21]; 1 in assay [24]; 10 in [25]. Moreover, the Bmax in assay [22] amounted to 3.37. Moreover, the Kd in assay [26] was found to be 610 pM.
